Several values for one entry are separate records, joined by “and”; a condition that tells them apart may be missing. Identical values can stand only once.
Legend:
[1] = biological target: Heme A synthase from Aquifex aeolicus (Aquifex aeolicus strain VF5) (UniProt O66543); assay: cryo-EM structure; single-particle cryo-EM of purified AaHAS (2.5 mg/ml) in DM; map at 4.2 Å with C3 symmetry, 4.6 Å without applied symmetry
[2] = biological target: Heme A synthase from Aquifex aeolicus (Aquifex aeolicus strain VF5) (UniProt O66543); assay: native gel or EMSA; BN-PAGE, Novex 4 to 16% bis-Tris gel, purified AaHAS in DM; band at about 200 kDa, conversion factor 1.8 gives 110 kDa
[3] = biological target: Heme A synthase from Aquifex aeolicus (Aquifex aeolicus strain VF5) (UniProt O66543); assay: cross-linking; 0.5/3.5 mM BS3 or 0.5 mM DSS, room temperature, 30 min, quenched with 50 mM Tris-HCl pH 7.5, then 90°C for 10 min and SDS-PAGE
[4] = biological target: Heme A synthase from Aquifex aeolicus (Aquifex aeolicus strain VF5) (UniProt O66543); assay: SDS-PAGE + MALDI-TOF MS; purified AaHAS on 4 to 12% bis-Tris NuPAGE; incubated with 10 mM DTT at room temperature or 70°C for 10 min; masses of the two bands by MALDI-TOF MS (data not shown)
[5] = biological target: Heme A synthase from Aquifex aeolicus (Aquifex aeolicus strain VF5) (UniProt O66543); assay: native MS; LILBID-MS, AaHAS 2 mg/ml, in the presence of 150 mM NaCl, harsh laser mode, negative-ion mode
[6] = biological target: Heme A synthase from Aquifex aeolicus (Aquifex aeolicus strain VF5) (UniProt O66543); assay: SEC-MALS; 150 μl AaHAS at ~2 mg/ml, Superdex 200 10/300 GL, 20 mM Tris-HCl pH 7.4, 150 mM NaCl, 0.15% DM, 4°C
[7] = biological target: Heme A synthase from Aquifex aeolicus (Aquifex aeolicus strain VF5) (UniProt O66543); assay: native MS; LILBID-MS, additionally desalted AaHAS (without NaCl; 20 mM Tris-HCl pH 7.4, 0.15% DM), harsh laser mode, negative-ion mode

- stoichiometry N [1]: 3
- stoichiometry N [2]: 3
- stoichiometry N [3]: 2 and 3
- stoichiometry N [4]: 3
- stoichiometry N [5]: 3
- stoichiometry N [6]: 3
- stoichiometry N [7]: 2 and 3
Substance: Heme A synthase from Aquifex aeolicus (from UniProt O66543 2-296) (enzyme)

Source: article PMC7327177
